Data: patent US20190351049A1 (Regeneron, published 2019)

What was measured:
[1] = target: MERS-CoV spike protein (EMC/2012), wt (MERS-CoV (isolate EMC/2012), UniProt K9N5Q8 18-1353); experiment: cell-based or functional assay
[2] = target: MERS-RBD-mFc (MERS-CoV (isolate EMC/2012), UniProt K9N5Q8 367-606); experiment: Octet BLI, MERS.mFc captured on the sensor, then mAb-1 applied

Row | Binder | IC50 against MERSpp [1] [nM] | IC50 against live virus (EMC2012) [1] [nM] | mAb-1 Binding (nm) [2] [nm]
1 | H1H15259P2 (antibody, V domains shown) VH: QVQLVESGGGVVQPGRSLRLSCAASGFTFSNYGIHWVRQAPGKGLEWVAGIYYDGSNKYYGDSVKGRFTISRDNSKNTLYLQMNSLRAEDTAVYYCARDRGNNHYYHNNPYYYYHGLDVWGQGTTVTVSS VL: not shown | 0.0764 | 1.63 | 0.42
2 | H1H15237P2 (antibody, V domains shown) VH: EVQLVESGGGLVQPGGSLRLSCAASGFTSNSYPMSWVRQAPGKGLEWVSGISGRGGNTYYADSVKGRFTISRDNSKNTLYLQMNSLRVEDTAVYYCAETGTAFDYWGQGTLVTVSS VL: not shown | 0.066 | 1.01 | 0.39
3 | H1H15231P2 (antibody, V domains shown) VH: QLQLQESGPGLVKPSETLSLTCTVSGGSISSNTYYWGWIRQPPGKGLEWIGTIYYTGNTYYKSSLKSRVTISVDTSRNQFSLKLTSVTAADTAVYYCARQFADLNYVDYWGQGTLVTVSS VL: not shown | 0.102 | 0.92 | 0.5
4 | H1H15249P2 (antibody, V domains shown) VH: QLQLQESGPGLVKPSETLSLTCTVSGGSISNNNYYWGWIRQPPGKGLDWIGSIYYSGNTYYNPSLKSRVTISVDTSKNQFSLKMSSVTATDTALYYCARQGADHNWVDPWGQGTLVTVSS VL: not shown | 0.227 | 12 | 0.4
5 | H1H15228P2 (antibody, V domains shown) VH: EVQLVESGGGLVQPGGSLRLSCAVFGFTFSGYAMSWVRQAPGKGLEWVSAISGGGGSTYYTDSVKGRFTISRDNSKNTLYLQMNSLRAEDTAVYYCASYWNNGMDVWGQGTTVTVSS VL: not shown | 0.0975 | 0.898 | 0.52
6 | H1H15208P (antibody, V domains shown) VH: EVQLVESGGDLVQPGGSLRLSCTASGFTFSNYEMNWVRQAPEKGLDWVSFISSSGGAIYYADSVKGRFTISRDNAKNSLYLQMNSLRAEDSAIYFCARSDSGGNSRYWGQGTLVTVSS VL: DIQMTQSPSSVSASVGDRVTVTCRASQDISNWLVWYQQKPGKAPKFLIYAASSLQSGVPSRFSGSGSGTDFTLTISSLQPEDFATYYCQQANSFPPTFGGGTKVEIK | 0.0827 | 2.41 | 0.46
7 | H1H15253P2 (antibody, V domains shown) VH: EVQLVESGGGLVQPGGSLRLSCVVSGFTSRNYAMSWVRQAPGKGLEWVSAISGSGGSTYYADSVKGRFTISRDNPKNTLYLQMNSLRAEDTALYYCAEDPGTSFDYWGQGTLVTVSS VL: not shown | 0.151 | 2.42 | 0.38
8 | H1H15264P2 (antibody, V domains shown) VH: QLQLQESGPGLVKPSETLSLTCSVSGGSINNNNYYWGWIRQPPGRGLEWIGSFFYSGPTYYNPSLRSRVTISVDTSKNQFSLKLNSVTAADTAIYYCARQDGNYYPLFDYWGQGTLVTVSS VL: not shown | 0.134 | 2.39 | 0.41
9 | H1H15215P (antibody, V domains shown) VH: EVQLVESGGGLVQPGGSLRLSCAASGFTFSTYGMSWVRQAPGKGLEWVSTIIGSGYNTYYSDSVKGRFTMSRDNSKSTLYLQMNSLRAEDTAVYYCTKEGPIIGTTNWGQGTLVTVSS VL: not shown | 0.192 | 2.67 | 0.56
10 | H1H15233P2 (antibody, V domains shown) VH: EVQLVESGGGLVQPGGSLRLSCAASGFSFSSYGMNWVRQAPGKGLEWVSAISGRGGNTYSADSVKGRFTISRDNSKNTLFLQMNGLRAEDSAFYYCAKVGTYSSSSPFDYWGQGTLVTVSS VL: not shown | 0.0873 | 1.37 | 0.46
11 | H1H15260P2 (antibody, V domains shown) VH: QVQLQESGPGLVKPSETLSLTCSVSGGSITSSYWSWIRQPPGRGLEWIGYVYYYGTTKYNPSLKSRVTTSMDTSKNQFSLKLNSVTAADTAVYYCARLELLFDYWGQGTLVTVSS VL: not shown | 0.0643 | 6.7 | 0.39
